Laboratory results taken from the supplement of paper PMC9170038.

System: MS2 coat protein
Assay: apparent KD of MS2 coat protein; designed switch direction (-1 OFF switch, 1 ON switch): 1; higher = weaker reporter binding
Summary of the method: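 RNA switches sharing common flanks were transcribed by stalled E. coli RNA polymerase on Illumina chips. A doubling series of SNAP-549-labelled MS2 coat protein, from 0.7 or 1.5 nM to 3 µM, was applied in Tris-HCl pH 7.5 buffer with KCl, MgCl2, BSA, DTT, tRNA and Tween-20. Each step lasted 0.8–1.5 h at the bottom of the series and 10–20 min at the top. Normalised cluster fluorescence was curve-fitted, giving apparent KD as the per-design median over clusters.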

[1] = Eterna round: R95, input ligand: FMN 200 uM
[2] = Eterna round: R95, input ligand: microRNA oligo, concentration not stated
[3] = Eterna round: R95, input ligand: none
[4] = input ligand: microRNA oligo, concentration not stated

## GUAUCUACAGGUUUCUUUGCUCGUCUGAUACAUGAGGAUCACCCAUGUUAUAGCCCUGUGCUUGCGCAGGGCUGAGG [Sensor for hsa-mir-208a ( MOD of Tearor v.3 )] (puzzle: Sensor for hsa-mir-208a)
[1]
  apparent KD of MS2 coat protein: 34.1 nM
[2]
  apparent KD of MS2 coat protein: 36.6 nM
[3]
  apparent KD of MS2 coat protein: 37 nM

## GUGACCUCCCUAGGAUAUCGCCAAAUGUGAUGUCGACAUGAGGAUCACCCAUGUAUAGUCACGAACGAGAAGGAGGGUGUGGCA [Cesodi] (Eterna round: R96, puzzle: Same State NG 2)
Input ligand: FMN 200 uM
  apparent KD of MS2 coat protein: 15.6 nM
[4]
  apparent KD of MS2 coat protein: 17.5 nM
Input ligand: none
  apparent KD of MS2 coat protein: 19.4 nM

## GUGCAACCGUGUGAGGAUAUCGGUGAACAAACAUGAGGAUCACCCAUGUCCGAAGCUCGGUUCUCCGAGAAGGCGCACAGUUGCA [Same State 2 - Mod of Erisin v.3] (puzzle: Same State 2)
[1]
  apparent KD of MS2 coat protein: 72.6 nM
[2]
  apparent KD of MS2 coat protein: 105 nM
[3]
  apparent KD of MS2 coat protein: 224 nM

## GUGCAACCGUGUGAGGAUAUCGGUGAUCAGACAUGAGGAUCACCCAUGUCCGAAGCUCGGAUCUCCGAGAAGGCGCACAGUUGCA [Same State 2 - Mod of Erisin v.6] (puzzle: Same State 2)
[1]
  apparent KD of MS2 coat protein: 92.8 nM
[2]
  apparent KD of MS2 coat protein: 232 nM
[3]
  apparent KD of MS2 coat protein: 296 nM

## GUGCGGGUGCCACAGGAUAUACGUGGAUCGACAUGAGGAUCACCCAUGUAUAUCCUAAUAAUUGCGUAGAAGGGUGGUCAGCCGU [Enbebiqu] (Eterna round: R96, puzzle: Same State 2)
Input ligand: FMN 200 uM
  apparent KD of MS2 coat protein: 144 nM
[4]
  apparent KD of MS2 coat protein: 196 nM

## GUGCGGGUGCCACAGGAUAUACGUGGAUCGACAUGAGGAUCACCCAUGUAUAUCCUAAUAAUUGCGUAGAAGGGUGGUCAGCCGU [Enbebiqu] (puzzle: Same State 2)
[1]
  apparent KD of MS2 coat protein: 85.9 nM
[2]
  apparent KD of MS2 coat protein: 308 nM
[3]
  apparent KD of MS2 coat protein: 340 nM

## GUGCUCGUGUAAGGAUAUGCUUCCGUUUCGGCUGCAGAAGGUACUAUUAUACAUGAGGAUCACCCAUGUCUCUUUUGUUUGGUG [salish99_SSNG1_r04_909] (Eterna round: R96, puzzle: Same State NG 1)
Input ligand: FMN 200 uM
  apparent KD of MS2 coat protein: 89.1 nM
[4]
  apparent KD of MS2 coat protein: 55.5 nM
Input ligand: none
  apparent KD of MS2 coat protein: 87.9 nM

## GUGCUCGUGUGAGGAUAUGCUUCCGGUUCGGCUGCAGAAGGUACUAUUAUACAUGAGGAUCACCCAUGUCGCUUUUCUCCGGUG [salish99_SSNG1_r04_916] (Eterna round: R96, puzzle: Same State NG 1)
Input ligand: FMN 200 uM
  apparent KD of MS2 coat protein: 28.3 nM
[4]
  apparent KD of MS2 coat protein: 17.6 nM
Input ligand: none
  apparent KD of MS2 coat protein: 25 nM

## GUGCUCGUGUGAGGAUAUGCUUCCGUUUCGGCUGCAGAAGGUACUAUUAUACAUGAGGAUCACCCAUGUCGCUUUUCUCCGGUG [salish99_SSNG1_r04_915] (Eterna round: R96, puzzle: Same State NG 1)
[4]
  apparent KD of MS2 coat protein: 21.8 nM

## GUGGCCUAGGCACAGGAUAUGUUGCUCGUAACAUGAGGAUCACCCAUGUGCCUAUGAGAUUUAAUGCAGAAGGGUGCACGCCACG [Edbeso] (Eterna round: R96, puzzle: Same State 2)
Input ligand: FMN 200 uM
  apparent KD of MS2 coat protein: 14.3 nM
[4]
  apparent KD of MS2 coat protein: 123 nM
Input ligand: none
  apparent KD of MS2 coat protein: 139 nM

## GUGGUCAGACAUGAGGAUCACCCAUGUGGAAUAAAUAACACACAGGAUAUCAAAUAUAAAAUAUAUGAGAAGGGUGGAUUGGUG (Eterna round: R96, puzzle: Same State NG 3)
[4]
  apparent KD of MS2 coat protein: 300 nM

## GUGGUCAGACAUGAGGAUCACCCAUGUGGAAUAAAUAACGGACAGGAUAUUUAAUAUAGGAUAUAGAAGAAGGGUUGAUUGGUG (Eterna round: R96, puzzle: Same State NG 3)
Input ligand: FMN 200 uM
  apparent KD of MS2 coat protein: 104 nM
[4]
  apparent KD of MS2 coat protein: 77.9 nM
Input ligand: none
  apparent KD of MS2 coat protein: 90.8 nM

## GUGGUCAGACAUGAGGAUCACCCAUGUGGAAUAAAUAACGGUGAGGAUAUGGAAUAUAGGAUAUACUAGAAGGCAUGAUUGGUG (Eterna round: R96, puzzle: Same State NG 3)
Input ligand: FMN 200 uM
  apparent KD of MS2 coat protein: 91.5 nM
[4]
  apparent KD of MS2 coat protein: 76.9 nM
Input ligand: none
  apparent KD of MS2 coat protein: 92.3 nM

## GUGGUCAGACAUGAGGAUCACCCAUGUGGAAUAAAUAAGGGAGAGGAUAUUUAAUAUAGGAUAUAAAAGAAGGCUCGGUUGGUG (Eterna round: R96, puzzle: Same State NG 3)
Input ligand: FMN 200 uM
  apparent KD of MS2 coat protein: 86.3 nM
[4]
  apparent KD of MS2 coat protein: 113 nM
Input ligand: none
  apparent KD of MS2 coat protein: 115 nM

## GUUAAACAUGAGGAUCACCCAUGUAAUAUAAUGGGAGGAUAUCUGAAUUAAUUAAAUUAAGGAGAAGGCCUAUAUG [Mat - Same State 1 - Mod of Eli - D53] (puzzle: Same State 1)
[1]
  apparent KD of MS2 coat protein: 36.6 nM
[2]
  apparent KD of MS2 coat protein: 210 nM
[3]
  apparent KD of MS2 coat protein: 271 nM

## GUUAAGAACUAAGGAUAUUGAAUACAUAUGUUUAACAUGAGGAUCACCCAUGUGGGUUGCGGUGUCGAGAAGGUAGAAUAAUAG [Mat - same State NG 2 - JL mod - D98] (Eterna round: R96, puzzle: Same State NG 2)
[4]
  apparent KD of MS2 coat protein: 148 nM

## GUUACAUGAGGAUCACCCAUGUAUGUGUGGGAGUAAGUGUCUUAGGAUAUCUAAUAUUUAAAUUAAGAGAAGGAAGAUUGUUGU [JMF's solution 6] (Eterna round: R96, puzzle: Same State NG 3)
Input ligand: FMN 200 uM
  apparent KD of MS2 coat protein: 112 nM
[4]
  apparent KD of MS2 coat protein: 89.9 nM
Input ligand: none
  apparent KD of MS2 coat protein: 112 nM

## GUUACAUGAGGAUCACCCAUGUAUGUGUGGGAGUAAGUGUCUUAGGAUAUCUAGUAUUUAAUGUAAGAGAAGGAAGAUUGUUGU [JMF's solution 64] (Eterna round: R96, puzzle: Same State NG 3)
Input ligand: FMN 200 uM
  apparent KD of MS2 coat protein: 130 nM
[4]
  apparent KD of MS2 coat protein: 106 nM
Input ligand: none
  apparent KD of MS2 coat protein: 96.1 nM

## GUUACAUGAGGAUCACCCAUGUAUGUGUGGGAGUAAGUGUCUUAGGAUAUCUGUUAUUUAAAUUAAGAGAAGGAAGAUUGUUGU [JMF's solution 8] (Eterna round: R96, puzzle: Same State NG 3)
Input ligand: FMN 200 uM
  apparent KD of MS2 coat protein: 120 nM
[4]
  apparent KD of MS2 coat protein: 89.2 nM
Input ligand: none
  apparent KD of MS2 coat protein: 110 nM

## GUUACAUGAGGAUCACCCAUGUAUGUGUGGGAGUAAGUGUCUUAGGAUAUCUGUUAUUUAAUUCAAGAGAAGGAAGAUUGUUGU [JMF's solution 46] (Eterna round: R96, puzzle: Same State NG 3)
Input ligand: FMN 200 uM
  apparent KD of MS2 coat protein: 94.6 nM
[4]
  apparent KD of MS2 coat protein: 79.1 nM
Input ligand: none
  apparent KD of MS2 coat protein: 93.7 nM

## GUUACAUGAGGAUCACCCAUGUAUGUGUGGGAGUAAGUGUCUUAGGAUAUCUGUUAUUUUAUUUAAGAGAAGGAAGAUUGUUGU [JMF's solution 39] (Eterna round: R96, puzzle: Same State NG 3)
Input ligand: FMN 200 uM
  apparent KD of MS2 coat protein: 133 nM
[4]
  apparent KD of MS2 coat protein: 68.9 nM
Input ligand: none
  apparent KD of MS2 coat protein: 80.7 nM

## GUUCGUUUGAUAGGAUAUCGCUUAACAUGAGGAUCACCCAUGUUUACCACGCUGGUUUUUCGUACCGAGAAGGAUUCUGAUGAU [JL JR sub007 mod 1] (Eterna round: R96, puzzle: Same State NG 2)
Input ligand: FMN 200 uM
  apparent KD of MS2 coat protein: 37.9 nM
[4]
  apparent KD of MS2 coat protein: 43.6 nM
Input ligand: none
  apparent KD of MS2 coat protein: 47.1 nM

## UAAAAGAAUUAAGGAUAUUGAAUACAUAUGUUUAACAUGAGGAUCACCCAUGUGGGUUGCGGUAUCGAGAAGGUAAAAUAAUAG [Mat - Same State NG 2 - JL mod - D6] (Eterna round: R96, puzzle: Same State NG 2)
Input ligand: FMN 200 uM
  apparent KD of MS2 coat protein: 163 nM
[4]
  apparent KD of MS2 coat protein: 110 nM
Input ligand: none
  apparent KD of MS2 coat protein: 151 nM

## UAACAACAUAUAGAACAAGCGUGCUCGUCACAUGAGGAUCACCCAUGUCUAAGCGCUGUACCUACAUCCUCAGCGCC [Raononbeen] (puzzle: Sensor for hsa-mir-208a)
[1]
  apparent KD of MS2 coat protein: 105 nM
[2]
  apparent KD of MS2 coat protein: 29.2 nM
[3]
  apparent KD of MS2 coat protein: 96.4 nM

## UAAGUAUGUUGAGGAUAUUAUGUCAAGAGAGAUGACAUGAGGAUCACCCAUGUGUGAAGAGGAUUUAAGAAGGCAACAUACUUA [JR_SSNG2_Sub090] (Eterna round: R96, puzzle: Same State NG 2)
Input ligand: FMN 200 uM
  apparent KD of MS2 coat protein: 39.9 nM
[4]
  apparent KD of MS2 coat protein: 47.7 nM
Input ligand: none
  apparent KD of MS2 coat protein: 66.7 nM

## UAAUUAAGUCAAGGAUAUCACGUCGUUUAGACGUGAGAAGGUGAUUAAUACAUGAGGAUCACCCAUGUAAUACAUGAAUAAUUA [SSNG1/11-B3] (Eterna round: R96, puzzle: Same State NG 1)
Input ligand: FMN 200 uM
  apparent KD of MS2 coat protein: 51.3 nM
[4]
  apparent KD of MS2 coat protein: 59.5 nM
Input ligand: none
  apparent KD of MS2 coat protein: 64.5 nM

## UACAAUCUAUCUGAGGAUAUCAUGAAGAAAACAUGAGGAUCACCCAUGUGCAGGAUAACUGCAAAUGAGAAGGCAGAUAGAUUGU [Mat - Same State 2 - Mod - D5] (puzzle: Same State 2)
[1]
  apparent KD of MS2 coat protein: 8.19 nM
[2]
  apparent KD of MS2 coat protein: 18.5 nM
[3]
  apparent KD of MS2 coat protein: 18 nM

## UACAAUCUAUCUGAGGAUAUCAUGAUAAUAACAUGAGGAUCACCCAUGUGCAGGAAAACUGCAUAUGAGAAGGCAGAUAGAUUGA [Mat - Same State 2 - Mod - D13] (puzzle: Same State 2)
[1]
  apparent KD of MS2 coat protein: 89.9 nM
[2]
  apparent KD of MS2 coat protein: 93.1 nM
[3]
  apparent KD of MS2 coat protein: 417 nM
